Laboratory results from patent US20050026827A1, “Octapeptide bombesin analogs” (Societe de Conseils de Recherches et d'Applications …, priority 1987, published 2005).
Non-standard residues stand in square brackets, D forms with d. Residues, ends and D or L forms follow the SMILES beside them. No end group written: not given here. *: point of attachment. dPhe(F5) = N[C@H](Cc1c(F)c(F)c(F)c(F)c1F)C(=O)O; X2 = CC(C)C[C@@H](CN[C@@H](CC(C)C)C(N)=O)N*; Sta = CC(C)C[C@H](N)[C@@H](O)CC(=O)O; pGlu = O=C1CC[C@@H](C(=O)O)N1; dNMeA = CN[C@H](C)C(=O)O

B1: BIM-26101, pGlu-Gln-Trp-Ala-Val-Gly-His-Leuψ[CH2NH]Leu-NH2 (Litorin analog) (peptide)
peptide: [pGlu]QWAVGHLL-NH2
modifications: also: reduced bond ψ[CH2NH] between Leu8 and Leu9
B2: BIM-26122, D-Phe-Gln-Trp-Ala-Val-Gly-His-Leu-NH2 (Litorin analog) (peptide)
peptide: FQWAVGHL
modifications: D-Phe at 1; C-terminal amide
B3: BIM-26100, pGlu-Gln-Trp-Ala-Val-Gly-His-Pheψ[CH2NH]Leu-NH2 (Litorin analog) (peptide)
peptide: EQWAVGHFL
modifications: pGlu at 1 (written E); reduced peptide bond ψ[CH2NH] between Phe 8 and Leu 9; C-terminal amide
B4: BIM-26092, Gly-Asn-His-Trp-Ala-Val-Gly-His-Leuψ[CH2NH]Leu-NH2 (Neuromedin C analog) (peptide)
peptide: GNHWAVGHLL-NH2
modifications: also: reduced bond ψ[CH2NH] between Leu9 and Leu10
B5: BIM-26120, pGlu-Gln-Trp-Ala-Val-Gly-His-Sta-NH2 (Litorin analog) (peptide)
peptide: [pGlu]QWAVGH[Sta]-NH2
SMILES: CC(C)C[C@H](NC(=O)[C@H](Cc1c[nH]cn1)NC(=O)CNC(=O)[C@@H](NC(=O)[C@H](C)NC(=O)[C@H](Cc1c[nH]c2ccccc12)NC(=O)[C@H](CCC(N)=O)NC(=O)[C@@H]1CCC(=O)N1)C(C)C)[C@@H](O)CC(N)=O

Assays:
[1] = target: bombesin receptor of rat pancreatic acini cells (rat) (UniProt P52500)
[2] = target: bombesin receptor of rat pancreatic acini cells (rat) (UniProt P52500); assay: displacement of 125I-labeled bombesin from rat pancreatic acini cells
[3] = target: 3T3 fibroblast bombesin receptors (murine (3T3 murine fibroblasts)) (UniProt P21729); assay: inhibition of [125I]GRP binding to 3T3 cell membranes
[4] = target: 3T3 fibroblast bombesin receptors (murine (3T3 murine fibroblasts)) (UniProt P21729)
[5] = target: T1, bombesin receptor (Rattus norvegicus, UniProt P52500); assay: Displacement of 125I-labeled bombesin from rat pancreatic acini cells; format: binding; conditions: read-out: half-maximal effective dose, displacement of 125I-labeled bombesin
T1 construct: displace ^125I-labeled bombesin from rat pancreatic acini cells; from tissue; host or cells: rat pancreatic acini cells
Source text: D-Phe-Gln-Trp-Ala-Val-N-methyl-D-Ala-His-Leu-methylester and D-F5-Phe-Gln-Trp-Ala-Val-D-Ala-His-Leu-methylester were examined for their abilities to displace ^125I-labeled bombesin from rat pancreatic acini cells and to inhibit amylase release from these cells produced by bombesin itself.

[6] = tested on: rat anterior pituitary cells; assay: Growth hormone release from primary culture of rat anterior pituitary cells (agonist potency); format: cell-based; conditions: GH release, relative to GRF(1-29)NH2 = 100; 4-point assay
Experimental: Phase 7—Inhibition of Growth Hormone Release
Anterior pituitaries from adult male rats, weighing 200-250 g and housed under controlled conditions (lights on from 0500-1900 h), were dispersed using aseptic technique by a previously described trypsin/DNase method (Heiman et al., Endocrinology, 1985, 116, 410) derived from other methods (Hoefer et al., Mol. Cell. Endocrinol., 1984, 35, 229).
The dispersed cells were diluted with sterile-filtered Dulbecco's modified Eagle medium (MEM) (Gibco Laboratories, Grand Island, N.Y. (GIBCO)), which was supplemented with fetal calf serum (2.5%; GIBCO), horse serum (3%; GIBCO), fresh rat serum (10% stored on ice for no longer than 1 h) from the pituitary donors, MEM nonessential amino acids (1%; GIBCO), gentamycin (10/mg/mL; Sigma) and nystatin (10,000 U/mL; GIBCO). The cells were counted with a hemacytometer (approximately 2,000,000 cells per pituitary) and randomly plated at a density of 200,000 per well (Co-star cluster 24; Rochester Scientific Co., Rochester, N.Y.). […]
Growth hormone (GH) in plasma and media was measured by a standard double antibody radioimmunoassay using components supplied by the NIDDK and the National Hormone and Pituitary Program, University of Maryland School of Medicine. […] Potencies and 95% confidence intervals were calculateds by 4-point assay (Pugsley, Endocrinology, 1946, 39, 161). […]

[7] = target: swiss 3T3 cells (Mus musculus, UniProt P21729); assay: Bombesin-stimulated [3H]thymidine uptake by cultured 3T3 cells; format: cell-based, murine; conditions: Table 1
Experimental: Phase 1—3T3 Peptide Stimulated [^3H] Thymidine Uptake Assay
Cell Culture. Stock cultures of swiss 3T3 cells are grown in Dulbecco's Modified Eagles Medium (DMEM) supplemented with 10% fetal calf serum in humidified atmosphere of 10% CO2/90% air at 37° C. For experimental use, the cells are seeded into 24-well cluster trays and used four days after she last change of medium. The cells are arrested in the G1/G0 phase of the cell cycle by changing to serum-free DMEM 24 hours prior to the thymidine uptake assay.
Assay of DNA Synthesis. The cells are washed twice with 1 ml aliquots of DMEM (-serum) then incubated with DMEM (-serum), 0.5 μM [methyl-^3H] thymidine (20 Ci/mmole, New England Nuclear), bombesin (3 nM), and initially four concentrations of the test compounds (1, 10, 100, 1000 nM) in a final volume of 1.0 ml. After 28 hours at 37° C., [methyl-^3H] thymidine incorporation into acid-insoluble pools is assayed as follows. The cells are washed twice with ice-cold 0.9% NaCl (1 ml aliquots), and acid soluble radioactivity is removed by a 30 min. (4° C.) incubation with 5% trichloroacetic acid (TCA). The cultures are then washed once (1 ml) with 95% ethanol and solubilized by a 30 min. incubation (1 ml) with 0.1N NaOH. The solubilized material is transferred to vials containing 10 ml ScintA (Packard), and the radioactivity is determined by liquid scintillation spectrometry.
(§1) A number of analogs of bombesin or GRP, each containing a non-peptide bond or a statine, AHPPA, or ACHPA, β-amino acid, or γ-amino acid residue, can be synthesized and tested in one or more of the above-described Phase 1-7 assays; the results of Phase 1 and 2 tests are given in Table 1 attached hereto. […] (3T3 GRP receptor and thymidine uptake data are expressed in IC50 (nM).) Table 1 also gives results for non-peptide bond-containing analogs of one other naturally-occurring peptide, Neuromedin C, whose C-terminal seven amino acids are similar to those of bombesin and GRP. (In Table 1, “Litorin” indicates a 9 residue peptide analog or its derivative, whereas “Neuromedin C” indicates a 10 residue analog or its derivative.)

[8] = target: T2, 3T3 fibroblast bombesin receptors (3T3 GRP receptor) (Mus musculus, UniProt P21729); assay: In vitro inhibition of [125I]GRP binding to 3T3 fibroblast bombesin receptors; design: species or system murine; conditions: inhibition of [125I]GRP binding, 3T3 membranes; read-out: 3T3 GRP Receptor IC50
T2 construct: Membranes from various tissues (rat brain, rat pancreas, rat anterior pituitary, SCLC, 3T3 cells) are prepared by homogenization; endogenous in cells; host or cells: 3T3 fibroblasts (membrane preparation)
Experimental: Phase 4—In Vitro Inhibition of [^125I] Gastrin Releasing Peptide (GRP) Binding to Bombesin Receptors
Membranes from various tissues (rat brain, rat pancreas, rat anterior pituitary, SCLC, 3T3 cells) are prepared by homogenization in 50 mM TrisHCl containing 0.1% bovine serum albumin and 0.1 mg/ml bacitracin followed by two centrifugations (39,000×g×15 min., 4° C.) with an intermediate resuspension in-fresh buffer. For assay, aliquots […] are incubated with 0.5 nM [^125I]GRP (˜2000 Ci/mmol, Amersham Corp.) and various concentrations of the test compounds in a final volume of 0.5 ml. After a 30 minute incubation at 4° C., the binding reaction is terminated by rapid filtration through Whatman GF/C filters that have been pre-soaked in 0.3% aqueous polethyleneimine to reduce the level of nonspecific binding. The filters and tubes are washed three times with 4 ml aliquots of ice-cold buffer, and the radioactivity trapped on the filters is counted by gamma-spectrometry. Specific binding is defined as the total. [^125I]GRP bound minus that bound in the presence of 1000 nM. bombesin or a related peptide.
as §1

[9] = target: 3T3 fibroblast bombesin receptors (murine (3T3 murine fibroblasts), UniProt P21729); assay: inhibition of [125I]GRP binding to 3T3 cell membranes

Chain of 3T3 fibroblast bombesin receptors (murine (3T3 murine fibroblasts)) (P21729 whole entry): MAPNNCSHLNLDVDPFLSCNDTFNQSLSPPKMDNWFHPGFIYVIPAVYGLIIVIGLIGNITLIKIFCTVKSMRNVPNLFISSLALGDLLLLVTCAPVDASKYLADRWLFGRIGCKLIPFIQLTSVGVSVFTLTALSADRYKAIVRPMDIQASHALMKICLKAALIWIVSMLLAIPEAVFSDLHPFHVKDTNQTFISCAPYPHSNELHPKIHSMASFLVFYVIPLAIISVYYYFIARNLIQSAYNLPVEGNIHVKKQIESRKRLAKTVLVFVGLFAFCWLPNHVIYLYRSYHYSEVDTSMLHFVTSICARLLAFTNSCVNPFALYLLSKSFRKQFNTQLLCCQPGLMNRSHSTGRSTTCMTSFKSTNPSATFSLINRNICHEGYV
T1 sequence (P52500 whole entry): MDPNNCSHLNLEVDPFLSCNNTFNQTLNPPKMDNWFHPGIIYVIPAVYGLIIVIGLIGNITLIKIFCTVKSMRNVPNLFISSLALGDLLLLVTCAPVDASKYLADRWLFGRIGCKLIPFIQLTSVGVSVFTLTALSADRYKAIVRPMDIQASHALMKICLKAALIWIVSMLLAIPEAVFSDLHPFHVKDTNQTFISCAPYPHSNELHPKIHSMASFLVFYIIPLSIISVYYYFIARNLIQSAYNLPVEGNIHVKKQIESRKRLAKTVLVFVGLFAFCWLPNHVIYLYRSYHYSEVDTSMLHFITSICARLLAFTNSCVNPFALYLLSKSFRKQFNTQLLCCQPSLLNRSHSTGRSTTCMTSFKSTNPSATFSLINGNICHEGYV
T2 sequence (P21729 whole entry): as the sequence (P21729 whole entry) above
Chain of swiss 3T3 cells (P21729 whole entry): as above

Row | Molecule | bombesin-stimulated [3H]Thymidine uptake, IC50 [4] [nM] | IC50 [9] [nM] | also measured
1 | The analogues (D-Phe-Gln-Trp-Ala-Val-N-methyl-D-Ala-His-Leu-methylester and D-F5-Phe-Gln-Trp-Ala-Val-D-Ala-His-Leu-methylester) |  |  | inhibition of amylase release produced by bombesin, half-maximal effective dose [1]: 5 to 10 nM; half-maximal effective dose [2]: 5 to 10 nM
2 | BIM-26182, D-Cpa-Gln-Trp-Ala-Val-Gly-His-β-Leu-NH2 (Litorin analog) (peptide) | 4.77 |  | IC50 [3]: 0.88 nM
3 | BIM-26136, D-Nal-Gln-Trp-Ala-Val-Gly-His-Leuψ[CH2NH]Phe-NH2 (Litorin analog) (peptide) | 3.3 |  | IC50 [3]: 1.4 nM
4 | COC(=O)[C@H](CC(C)C)NC(=O)[C@H](Cc1c[nH]cn1)NC(=O)[C@@H](C)N(C)C(=O)[C@@H](NC(=O)[C@H](C)NC(=O)[C@H](Cc1c[nH]c2ccccc12)NC(=O)[C@H](CCC(N)=O)NC(=O)[C@H](N)Cc1ccccc1)C(C)C [D-Phe-Gln-Trp-Ala-Val-N-methyl-D-Ala-His-Leu-methylester] (H-[dF]QWAV[dNMeA]HL-OMe) |  |  | IC50 [5]: 5 to 10 nM
5 | COC(=O)[C@H](CC(C)C)NC(=O)[C@H](Cc1c[nH]cn1)NC(=O)[C@@H](C)NC(=O)[C@@H](NC(=O)[C@H](C)NC(=O)[C@H](Cc1c[nH]c2ccccc12)NC(=O)[C@H](CCC(N)=O)NC(=O)[C@H](N)Cc1c(F)c(F)c(F)c(F)c1F)C(C)C [D-F5-Phe-Gln-Trp-Ala-Val-D-Ala-His-Leu-methylester] (H-[dPhe(F5)]QWAV[dA]HL-OMe) |  |  | IC50 [5]: 5 to 10 nM
6 | GRF(1-29)NH2 [reference compound] |  |  | Potency (%) [6]: 100%
7 | CC(=O)N[C@H](C)C(=O)N[C@@H](Cc1c[nH]cn1)C(=O)N[C@@H](Cc1c[nH]c2ccccc12)C(=O)N[C@@H](C)C(=O)N[C@H](C(=O)NCC(=O)N[C@@H](Cc1c[nH]cn1)C(=O)N[C@H](CN[C@@H](CC(C)C)C(N)=O)CC(C)C)C(C)C [BIM-26108, N-Ac-D-Ala-His-Trp-Ala-Val-Gly-His-Leuψ[CH2NH]Leu-NH2] (Ac-[dA]HWAVGH-X2) |  |  | activity in the 3T3 thymidine uptake assay (in words) [7]: negative results; IC50 [8]: 841 nM
8 | BIM-26114, D-Nal-Gln-Trp-Ala-Val-Gly-His-Leuψ[CH2NH]Leu-NH2 (Litorin analog) (peptide) | 28 |  | IC50 [3]: 23.5 nM
9 | B1 | 296 | 118 | 
10 | B2 |  | 5.9 | 
11 | B3 | 26 | 23 | 
12 | B4 | 466 | 242 | 
13 | B5 | 165 | 150 | 
